# Test results reported in the supplement of paper PMC9112550, “Optimization of the antimicrobial peptide Bac7 by deep mutational scanning” (BMC Biology, 2022).
# Tested on: Escherichia coli TOP10
# Test: shrunken log2 fold change of peptide-encoding DNA abundance (4.5 h post-induction vs induction); higher = less antimicrobial activity (less host growth inhibition)
# Conditions: time post-induction: 4.5 h; library: site-saturation at positions 5, 18, 19, 20
# 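Note: peptides expressed intracellularly from a pBAD plasmid library in pooled LB shake-flask culture, induced with 0.3% L-arabinose, DNA abundance read by NGS, three biological replicates, DESeq2 with apeglm shrinkage.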
row,Sequence,shrunken log2 fold change
1,RRIRERPPRLPRPRPRPLCSPRP,-0.512
2,RRIRYRPPRLPRPRPRPCVLPRP,-0.00875
3,RRIRQRPPRLPRPRPRPPVMPRP,-0.285
4,RRIRARPPRLPRPRPRPMRWPRP,0.618
5,RRIRDRPPRLPRPRPRPCPAPRP,-0.156
6,RRIRPRPPRLPRPRPRPKHPPRP,0.995
7,RRIRTRPPRLPRPRPRPQFMPRP,0.0325
8,RRIRHRPPRLPRPRPRPRIWPRP,0.242
9,RRIRVRPPRLPRPRPRPPTSPRP,0.101
10,RRIRFRPPRLPRPRPRPSQSPRP,-0.0504
11,RRIRKRPPRLPRPRPRPIPRPRP,1.3
12,RRIRTRPPRLPRPRPRPCETPRP,0.0184
13,RRIRERPPRLPRPRPRPPPDPRP,0.505
14,RRIRQRPPRLPRPRPRPVSYPRP,0.0822
15,RRIRIRPPRLPRPRPRPKELPRP,-0.563
16,RRIRGRPPRLPRPRPRPIMTPRP,2.36
17,RRIRMRPPRLPRPRPRPRTMPRP,0.926
18,RRIRPRPPRLPRPRPRPKYVPRP,-0.132
19,RRIRKRPPRLPRPRPRPRNEPRP,0.0551
20,RRIRERPPRLPRPRPRPVEMPRP,0.139
21,RRIRDRPPRLPRPRPRPHINPRP,-0.683
22,RRIRARPPRLPRPRPRPTDDPRP,0.332
23,RRIRCRPPRLPRPRPRPQRPPRP,0.166
24,RRIRIRPPRLPRPRPRPSKGPRP,-0.142
25,RRIRRRPPRLPRPRPRPDRWPRP,0.957

row,Sequence,shrunken log2 fold change
1,RRIRMRPPRLPRPRPRPQGLPRP,0.0389
2,RRIRYRPPRLPRPRPRPASNPRP,-0.0548
3,RRIRVRPPRLPRPRPRPITGPRP,-0.00538
4,RRIRPRPPRLPRPRPRPRSCPRP,0.395
5,RRIRGRPPRLPRPRPRPHYAPRP,-0.0664
6,RRIRQRPPRLPRPRPRPCRCPRP,-0.0134
7,RRIRKRPPRLPRPRPRPWHFPRP,0.169
8,RRIRHRPPRLPRPRPRPRVTPRP,0.0786
9,RRIRSRPPRLPRPRPRPAILPRP,-0.313
10,RRIRKRPPRLPRPRPRPIHYPRP,-0.15
11,RRIRGRPPRLPRPRPRPWQDPRP,0.00455
12,RRIRDRPPRLPRPRPRPFQLPRP,-0.0537
13,RRIRMRPPRLPRPRPRPHWYPRP,-0.484
14,RRIRHRPPRLPRPRPRPPCLPRP,-0.0439
15,RRIRTRPPRLPRPRPRPWTSPRP,0.0106
16,RRIRCRPPRLPRPRPRPPRWPRP,1.16
17,RRIRHRPPRLPRPRPRPVLSPRP,-0.386
18,RRIRRRPPRLPRPRPRPQIQPRP,0.151
19,RRIRVRPPRLPRPRPRPVIEPRP,0.161
20,RRIRNRPPRLPRPRPRPQMPPRP,-0.334
21,RRIRYRPPRLPRPRPRPCVSPRP,-0.0134
22,RRIRRRPPRLPRPRPRPFYVPRP,-0.0483
23,RRIRWRPPRLPRPRPRPKSQPRP,0.263
24,RRIRKRPPRLPRPRPRPAQTPRP,0.246
25,RRIRWRPPRLPRPRPRPQKDPRP,-0.154

row,Sequence,shrunken log2 fold change
1,RRIRERPPRLPRPRPRPRIKPRP,-0.598
2,RRIRQRPPRLPRPRPRPSNPPRP,0.0169
3,RRIRPRPPRLPRPRPRPIRRPRP,-0.0359
4,RRIRYRPPRLPRPRPRPPVSPRP,-0.378
5,RRIRHRPPRLPRPRPRPKVTPRP,-0.62
6,RRIRGRPPRLPRPRPRPHGGPRP,0.631
7,RRIRFRPPRLPRPRPRPWDYPRP,-0.387
8,RRIRLRPPRLPRPRPRPLGTPRP,0.18
9,RRIRKRPPRLPRPRPRPAVHPRP,0.112
10,RRIRQRPPRLPRPRPRPRWAPRP,0.144
11,RRIRFRPPRLPRPRPRPYGSPRP,-0.182
12,RRIRYRPPRLPRPRPRPVVLPRP,-0.397
13,RRIRVRPPRLPRPRPRPQMGPRP,0.00696
14,RRIRVRPPRLPRPRPRPPWTPRP,0.223
15,RRIRHRPPRLPRPRPRPCWFPRP,-0.499
16,RRIRERPPRLPRPRPRPQVWPRP,-0.0702
17,RRIRCRPPRLPRPRPRPFAPPRP,0.229
18,RRIRLRPPRLPRPRPRPEINPRP,-0.0201
19,RRIRWRPPRLPRPRPRPIMHPRP,-0.174
20,RRIRMRPPRLPRPRPRPDFWPRP,0.778
21,RRIRIRPPRLPRPRPRPFRKPRP,-0.169
22,RRIRNRPPRLPRPRPRPAHEPRP,-0.0423
23,RRIRNRPPRLPRPRPRPTKPPRP,0.24
24,RRIRHRPPRLPRPRPRPPEKPRP,-0.00804
25,RRIRCRPPRLPRPRPRPNVMPRP,-0.337
